From patent US20050265970A1 (UNIVERSITY OF CHICAGO, published 2005)
Each block holds one binder with its values, some of them ahead of it. Ends that are not written are not given here.

B2: GST-MKK7 (GST-JNKK2; human JNKK2 in pGEX-2T) (enzyme)
chain: MAASSLEQKLSRLEAKLKQENREARRRIDLNLDISPQRPRPTLQLPLANDGGSRSPSSESSPQHPTPPARPRHMLGLPSTLFTPRSMESIEIDHKLQEIMKQTGYLTIGGQRYQAEINDLENLGEMGSGTCGPVWKMRFRKTGHVIAVKQMRRSGNKEENKRILMDLDVVLKSHDCPYIVQCFGTFITNTDVFIAMELMGTCAEKLKKRMQGPIPERILGKMTVAIVKALYYLKEKHGVIHRDVKPSNILLDERGQIKLCDFGISGRLVDSKAKTRSAGCAAYMAPERIDPPDPTKPDYDIRADVWSLGISLVELATGQFPYKNCKTDFEVLTKVLQEEPPLLPGHMGFSGDFQSFVKDCLTKDHRKRPKYNKLLEHSFIKRYETLEVDVASWFKDVMAKT
notes: On glutathione beads in pull-downs; also called recombinant JNKK2; not shown: glutathione S-transferase encoded by the pGEX-2T vector

Key:
[1] = target: T1, GST (glutathione-S-transferase, control) (UniProt P08515 1-218 = GST); experiment: GST pull-down of 35S-labeled in vitro translated protein
T1 construct: Control beads in GST pull-downs
Protocol: Binding assays were performed according to standard procedures, and ³⁵S-labeled proteins that bound to beads, as well as 2 μl of each in vitro translation mix (input), were then resolved by SDS polyacrylamide gel electrophoresis.

[2] = target: T2, Gadd45β (1-68) (EcoRV digestion), in vitro translated as GFP fusion (murine, UniProt P22339 1-68, 35S-methionine label); experiment: GST pull-down with GST-JNKK2 beads and 35S-labeled in vitro translated Gadd45β truncations
T2 construct: range 1-68; not shown: GFP of pEGFP-N1 (Clontech) with a short oligonucleotide-encoded linker
T2 sequence (looked up): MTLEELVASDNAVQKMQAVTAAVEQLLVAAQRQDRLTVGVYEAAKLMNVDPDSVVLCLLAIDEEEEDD

[3] = target: T3, GST-Gadd45β (full-length murine Gadd45β directly fused to GST) (murine, UniProt P22339 1-160); experiment: GST pull-down of 35S-labeled in vitro translated MKK7 peptides
T3 construct: range 1-160; Made in E. coli BL21, on glutathione-sepharose beads in pull-downs; purified protein in kinase assays; not shown: glutathione S-transferase encoded by the pGEX-3X vector
T3 sequence (looked up): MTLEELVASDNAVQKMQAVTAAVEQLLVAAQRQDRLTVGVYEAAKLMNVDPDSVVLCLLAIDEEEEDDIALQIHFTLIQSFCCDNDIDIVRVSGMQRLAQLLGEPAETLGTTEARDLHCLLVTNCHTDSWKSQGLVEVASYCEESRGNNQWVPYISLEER

[4] = target: B2; experiment: GST pull-down with GST-JNKK2 beads and 35S-labeled in vitro translated Gadd45β truncations

T1 sequence (P08515 whole entry): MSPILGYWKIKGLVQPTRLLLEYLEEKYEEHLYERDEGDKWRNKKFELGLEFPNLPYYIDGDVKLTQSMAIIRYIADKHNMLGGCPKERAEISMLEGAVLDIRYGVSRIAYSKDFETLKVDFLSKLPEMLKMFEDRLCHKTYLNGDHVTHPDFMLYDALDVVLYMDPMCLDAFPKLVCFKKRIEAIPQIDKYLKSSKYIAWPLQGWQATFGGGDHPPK

B1: FL-JNKK2, JNKK2 (1-401; FL), 35S-labeled in vitro translated full-length human JNKK2/MKK7 (enzyme)
chain: MAASSLEQKLSRLEAKLKQENREARRRIDLNLDISPQRPRPTLQLPLANDGGSRSPSSESSPQHPTPPARPRHMLGLPSTLFTPRSMESIEIDHKLQEIMKQTGYLTIGGQRYQAEINDLENLGEMGSGTCGPVWKMRFRKTGHVIAVKQMRRSGNKEENKRILMDLDVVLKSHDCPYIVQCFGTFITNTDVFIAMELMGTCAEKLKKRMQGPIPERILGKMTVAIVKALYYLKEKHGVIHRDVKPSNILLDERGQIKLCDFGISGRLVDSKAKTRSAGCAAYMAPERIDPPDPTKPDYDIRADVWSLGISLVELATGQFPYKNCKTDFEVLTKVLQEEPPLLPGHMGFSGDFQSFVKDCLTKDHRKRPKYNKLLEHSFIKRYETLEVDVASWFKDVMAKT
modifications: 35S-methionine label
notes: Reticulocyte lysate translation from pBS-JNKK2; also called full-length MKK7; SacII (FL)
binding result [1]: no binding

Binder: B2
binding result [2]: no binding

Further lines, results first:

binding result [3]: no binding
B3: MKK7 peptide 2 (aa 142-166 of MKK7/JNKK2), in vitro translated, fused to eGFP (peptide)
chain: TGHVIAVKQMRRSGNKEENKRILMD
modifications: also: 35S-methionine label, place not given here, eGFP fusion, side not given here
notes: not shown: enhanced green fluorescent protein (eGFP, Clontech) fusion partner

binding result [4]: no binding
B4: Gadd45β (114-160), in vitro translated as GFP fusion (other, murine, UniProt P22339 114-160, looked up)
chain: ARDLHCLLVTNCHTDSWKSQGLVEVASYCEESRGNNQWVPYISLEER
modifications: cysteine pairing not given here; also: GFP fusion, letters not given here, 35S-methionine label
notes: The two places differ by one residue at the N-terminal limit; also called Gadd45β(113-160) in the methods; not shown: GFP of pEGFP-N1 (Clontech) with a short oligonucleotide-encoded linker
